Measurements from the domain aggregation screens of Martell et al. (2025).

Assay: soluble fraction after stress (log2 fold change); higher = more stays soluble; pooled small domains, quantitative proteomics
Conditions: stress: 75 degC
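Note: 20 min heating vs room temperature control held 20 min.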

Sequence | soluble fraction (log2)
HMGQVAKPPLKELGADPVTGKPMVLKDGRFGPYVTDGEYNASLRKDDDIETIGVERAAELLQIRREKGP | -0.252
HMGQVGIPFSDFLAEVENGQVREVVIKGNDISGTFNDNRGFSTYAPNDPNLVEKLTKRGVVINAQPTE | 0.077
HMGQVSEAGELEVAADRVIAANPEAVTKYKSGNENILQFLVGQMMKETKGAANPQVAAEILRKKIV | 0.065
HMGRELDLNQRVYDFIHDIADEVRTDEGTFSANQMMERFLFPGDLQSVPIGRLSGGERRRLYLLSVLMVKI | -0.0184
HMGRFPSLTPVVIDALTAQYREHPGWTVQLHVDNLRVVLAANQTPLPSYPTIRRYLLAQGMRRQTRP | -0.396
HMGRLNMRRIRDVLRLKFGQGLSERQVAASLGLSKTSVGTYLHRARQAGLTWPLPQGLDDDGLELLLFP | -1.69
HMGRMTRKDRALATDLYGRIVGNVDDFHEGRIDYETFSERQRGLWTTLDAAGPEVKRAVLADIRERL | -0.563
HMGRWQPSTSAKQHGESALLLERLLHLERLTVSEAFHVLTINHRLNLSLPEYRSLLAVVQLPK | -1.8
HMGRYDWIEQIDDPVLAERLKHLTEDDLELLTRYVFEDATQKELASQYGIGQQSVSKRLKKLKSFLTK | -0.355
HMGSATAPDLKGLTYEQAQTKAEDAGYNIEKGEDVYDNDVEKGKVASQDPEAGAEAKEGSVITVNISK | -0.0215
HMGSFAADVGRMVRLGRAKRGISRRKLAADSGISERYLAQIEGGQGNPSVNVLKAIADAISVPVFELLPH | -1.74
HMGSFDDAPDQLRQSILQLLAEGPLPPSAITERLNISREDATEALQQLLDEQRIFAVNGMLQLQPG | -0.109
HMGSFTDKQIKQAFGVLNDPRFKQGNYDGAVAVINKIAPGLADHPSVANALKRANEATQDIAQQTQA | 0.0868
HMGSGQIRYITENTVRVVYGTSKENEFVFQDGKPYPKDTPYHIHYTRNLEEYFMSGVEHDKNSKIILKVD | -0.946
HMGSGVNVTVNGKRMNLPLKDDHIIFVDIFNYIDFDLSKPKGSIVLKLNGRDAGYTDPIKDGDVIDIYWQ | -0.301
HMGSIDYLVGSRLRQYRRLRGYSLIEFSAMLHRSKSAISKYERGEVSIDLRTLNEMARLLDIPLSGLLL | -4.56
HMGSIEASFEEDVRRYLARKSMTTTEISKKMRQKRPDMSRDQLMTLLANAIKRIKPIKKKIKGTLYLSLE | -2.07
HMGSIMIIVLKENAPQQAAEKLMKEIRAKGLQIDVSKGTRKTVLGLVGDTSVIDMEHVQGYDYVDKVLRV | -1.11
HMGSKDLPFSTFMSEIDKGNITSVDIRGNEIQGTFANGTKFRTYSPNYPNLVEKLNGKGVSITAGPV | 0.409
HMGSKKITIYVSGEVKNPGIVTLNSDQRLASAVEKLGGVTENADMNNINLAMKLEDEMHYIIPKKGEK | -0.0389
HMGSKQVSVPDVRNLDYERASQQLREAGFVVGDVLRIRDDRAPAGTVIAQSPAAPALVPENARVSLLVSSG | 0.124
HMGSLAVVPSLTGKTLQEAQSKAADYGLALEIEGYVASTAVDYGRIVSQSPDAGFSVKSGSSVKVSVSAG | -0.0619
HMGSLGRAIRSRREKMKVGLEELAAKTGLSESHISDIEEGRGFAPVGDILKIARALTIDPGELLK | 0.49
HMGSLGSLLKSVRNQRGLSRQQMAQSLNIGVRAIEQIEEGERKPDLELLNRYARGLMDPSVT | -0.166
HMGSLKEKIVLLEKLYQQNPSEEIKLLLINTYQLNHQYIQARKLFFTLTPEQKEKLPLASEFLIFL | -1.04
HMGSLNDQVMKYIDALPSAFNKRELDFLIERGVKEFALNGEYLEKAIINEYKLTADTYHRER | 0.0903

Sequence | soluble fraction (log2)
HMGSLQPLLLAAIDALQTHIRSGLPFRVEERLAELDQFRTELQNGSVPPQRGVNRLWAFYEDEFRL | -1.06
HMGSLRSALDGIPGIGEQYQKRLLAQFGSVKAMRSASVEDFEAVRGIGRAKAQALYDALHAG | -0.221
HMGSLVVVPNLVGQNYDEVKLSTKYSDFEIVQKNTEYSEAPAGQIIKQDPEAGTKVKKHSTINVTVSK | -0.167
HMGSQELIQLGERIRQKRKDSHLTQETFAEKAGISVNTVSRIEGGQAAMSIEIFAKLVEILDADANELLG | -1.39
HMGSRAEAKEFLQTMLADGRQLATDMEEARQAHDIADRTLRRARKELNVQVYRDGNAWYWELPTPIK | -0.585
HMGSREVPFSDFISKVESGSVLEVVLRGRQVEGLTDANERFQTQIPNYPALFEILERNQVRTRVEPT | -0.0642
HMGSTATVIASRLNMRASASTTGALLTKIPNGATVTVLGTTGAWSHIRYGSYTGYVMSQYLRING | -3.1
HMGSTVRIVVPAADIPAYKDIQPSDLEYREVPKDEISEDAVTDPQEVINKYSTSPLYAGWPINKNIIET | -0.0405
HMGSYANAWQLAEHAAKDMLGEVIYLLDGKEVHAGILETMSAESIKTASAENVDGKVVIRLVSK | -0.15
HMGSYIGEAKAKEIALSHAGVSASQATFVRSQFEYDDGRAVYDVDFWSGNKEYDYEIDAKSGTIVSYDFD | -0.736
HMGSYVVQLGAFAIRANAEKLAREVDGSIATSGRFSLVRVGPFTSRGQAEQALAKLRARGYSDALIHSL | -2.39
HMGTDFRPVFQYVDELVRAGEFTNLKGMIYFTDGRGIFPEKKPDYDAAFVFLDDGYDPPDVPVWAIKLVL | -0.0422
HMGTGSSAERITMLNSILERQIQAMEIQGNPDAPIVNIQKIYTTLQRIVETAGLKDVDQFFMNPLQGQKEM | -0.134
HMGTIRAPMPGTILKINVVDGDSVTKGDVLLILESMKMENSITSPKTGSVTSVYVSEGDPVQHGETLIDL | -0.196
HMGTISKRINPSGTTVYRAVIRIRKNGYPNFTESRTFSKKSMAAEWVKRREAEIELNPDILFG | -2.57
HMGTLSLLVQKLMAVGLEGAKASEIVERFDRERIERQINALPSRKIKSSRTGFLIRAIELDIPVE | -2.58
HMGTPKMPLSLYLSMVENLRSLKRFALVNQQVKDGFVFFNDVAGIKRLQELLNYHNTGEKPSE | -2
HMGTRIQAVMEDIQSRIAARTYLPGTRLPSVRAQAQAMQVSVSTVVEAYERLAAEGVIASRPGSGFYVAGP | -3.05
HMGTRPAYAADAPNPQKRFIYHRIVDQLRNKATGAPISYRAIAAETGVSVQTVINIKNRMNQMLSEK | -1.27
HMGTRPIQIASFSKEENAKRAVEALAKIGITAQPQKSGSATKAVWGVVANGDADLLAKIKAAGFADAYFL | 0.0154
HMGTRTILGIDPGSRKTGFGIIRLDGSRTHYVSSGVIRIPDTALPERLKIIFASLNEIIQQFQPQEV | -0.339
HMGTRYVEFVIPGTGNHEVRIVSSNGSRQNVEVAGTYPGGARLRTKVDNGVRRVSFYVDNRLVEEKQ | -0.26
HMGTSFKITFYKDAFQVDDGPIRMLNDPANQKFVDEVSQGYAPKELIGQGGKAPEIDIIDKRSENAPT | 0.156
HMGTVFTDIMTDIASGKFPNVFPDSLEAQIQKNVTMAPDKLSATLQYGDKSVILPTTKGKEAAEAAVKAA | 0.000803
HMGTYTSALDGIKGLGKKRKMLLLNTYKSIDVLKSVPLTELSQLIPREVAEALLTKLNRVDD | -1.18
HMGVDASVDSKLDLLSQVLDSDQVKEQLPEAVLEQLAQNLDRWRSLHEESELQDDDIAELNRLLGLFGLG | 0.111

Sequence | soluble fraction (log2)
HMGVEKHLRITGTSTVSWKDAIVQAVAEASKTIDYLSNVKIIEQRARIDGKKLVEYFVDLDLSFVID | -0.23
HMGVGITAPLAGNIFKIVVQPGDVVASGDVVLVLEAMKMETEIRAASGGTVSQVLVREGDAVDAGHTLITL | -2.85
HMGVGVTAPLAGNIFKIVKQPGDVVASGDVVLILEAMKMETEIRAAAGGTVKQVLVREGDAVDAGHTLMTL | -1.38
HMGVHSVVPDIKNKHYGEAKAILAANGLSIEISDSIYDRSVAPGTVVESWPKAGAIVKGDRAVFVTLTAF | -1.61
HMGVMTGAEFVGNTVASVERNLIIDTLKHTMGNRTTAANILGISIRTLRNKLKQYQNEGFDIPE | -1.11
HMGVPELHKGEIVQAVVEKVLGEGLLRVNLKGMTVEAATSLRLNPGQQLLLRSEGIENGRQVLR | 0.275
HMGVQKGKDNALAVQQWIAERDATGDFGEYERRGIINRSALFDELGIPRSSMGSNDQIRQMIEAADVRWF | -0.47
HMGVREIIVQFLEQFDKPKSVQEIVEYVLRYRNTTENSIRSTMYSGSQFRQFDNGYFGLSDKSYPNEYIYA | -1.49
HMGVRLAPEVDRIPYGQMHPNLKKVKDLYEASYKAYVQALSSGNQALAKEKLEEFQSTKARYQRALSAYT | 0.305
HMGVRVEVDAVTPPGAMASGSVVFSDGESKKWSVDQFGRLAMTGGAPDYKPSDQDVMEFQQQLEQSL | 0.125
HMGVSAGQVRGLIRNLIAGEDKSKPLSDLALERELEKREIRISRRTVAKYRAELGIPNSDQRRYLP | -1.68
HMGVSLKEIQENLSLIDDAAQKLASGQGTVDDAVGMGNAGKDIYDNIEGYVSSPKEFINGVLSSV | -0.0252
HMGVSVNVQPAILDWAMQKAQMGNAGSSVIEMIAKWISGEKAPTFNQIEDVSKKISIPFGFFFLKEPPIE | -2.05
HMGVTGYPNPTREHITWDDARRIEVWNAYGVPVADLRFARGVLDVAGWPVGTYVARIDGGRSVRFVVI | -1.05
HMGVTVDEVHRNFESGMNVVHKKFGAGVVDSFDEGKIRINFDGVIKVFIADVLINSGMLESVSYTH | -0.832
HMGWEDLVGKTAVVKVALAPVGMVFFRGEFWSAISETGRIEPGEEVTISRIDGLKLYVTKKRIM | -3.89
HMGWEPTPVLVAARDISGGTVLDQDMLRVEAIPSRLVTPSIVRSDLLASVQDAKLLLPMKQGDLLNFNMLQ | -0.0591
HMGWVMLVIMSRGASEAQINAVVEKIRAAGLTEHLSKGIERTIIGAIGEERKLEPEVFELLPGVEQALHIV | -2.2
HMGYDSYDADTIPKLKIGSIVEHPKFGEGSIISKAGAEVTIAFKIKGVKKINLEYTSIKVLK | -1.67
HMGYGEQEQEAQKYLALHALMSQDPTLAKMYQAPNQYKLMSHVMEQNGIKNVNDYLTDPQQLP | -0.157
HMGYKDIDKLSGVDLAIYRFIVEHDEQIPYMRVRELARGAHVSNSSVMRFIRKIGYDSFPEFKVSLRS | -0.0854
HMGYPGLGSIGSKPLGDLLFQSKLFVKTKREFAEFKMANNNIVWGRRTQYLVRNYPLSVMEVFL | -0.0522
HMHAGQIISQKIKESGISISHVAKHLKVQRATLYNLFEREVWPAHRLRTIEALLHIDLSDLYP | -2.61
HMHANAALTPRQRLRLAQKIVDEEWTVAAAADYFRVSWPTAAKWARRYVELGEAGMADRSSRP | -2.55
HMHDEKHHQLANEIARKWAALRGNRDFAAADELKNLAAEAGVELQATKQAVGQGALAKLKENFDPVKLEAL | 0.192
